T1: human FcγRIIaH extracellular domain with C-terminal His-tag (human, UniProt P12318 34-217)
T1 construct: also called human FcgRIIaH; FcγRIIa (type H); not shown: His-tag added to C-terminus
T1 sequence: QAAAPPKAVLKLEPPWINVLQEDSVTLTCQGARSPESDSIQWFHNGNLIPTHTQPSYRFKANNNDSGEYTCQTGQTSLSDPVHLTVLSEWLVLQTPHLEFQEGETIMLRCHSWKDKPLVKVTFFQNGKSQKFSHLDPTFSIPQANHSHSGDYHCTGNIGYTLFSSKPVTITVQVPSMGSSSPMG

T2: human FcγRIIaR extracellular domain with C-terminal His-tag (human, UniProt P12318 34-217)
T2 construct: also called human FcgRIIaR; FcγRIIa (type R); not shown: His-tag added to C-terminus
T2 chain: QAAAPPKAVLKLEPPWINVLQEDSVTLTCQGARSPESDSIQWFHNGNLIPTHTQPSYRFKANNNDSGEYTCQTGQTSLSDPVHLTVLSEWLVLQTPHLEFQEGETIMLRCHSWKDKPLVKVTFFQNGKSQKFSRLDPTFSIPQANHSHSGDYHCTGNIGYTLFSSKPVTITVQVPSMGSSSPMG

T3: human FcγRIIb extracellular domain with C-terminal His-tag (human, UniProt P31994 43-217)
T3 construct: also called human FcgRIIb; not shown: His-tag added to C-terminus
T3 sequence: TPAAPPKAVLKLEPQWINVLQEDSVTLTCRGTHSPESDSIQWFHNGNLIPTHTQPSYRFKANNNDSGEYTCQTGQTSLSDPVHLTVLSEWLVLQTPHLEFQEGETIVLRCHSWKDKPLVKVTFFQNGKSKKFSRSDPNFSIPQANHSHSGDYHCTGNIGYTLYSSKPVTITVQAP

T4: cynomolgus monkey FcγRIIb extracellular domain with C-terminal His-tag (cynomolgus monkey)
T4 construct: also called cyno FcγRIIb; cynoFcγRIIb
T4 chain: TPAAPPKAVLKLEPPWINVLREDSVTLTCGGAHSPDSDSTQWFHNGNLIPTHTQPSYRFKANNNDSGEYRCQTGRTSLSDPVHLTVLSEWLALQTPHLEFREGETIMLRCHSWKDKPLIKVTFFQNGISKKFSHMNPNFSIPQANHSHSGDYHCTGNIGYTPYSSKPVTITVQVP

T5: cynomolgus monkey FcγRIIIaS extracellular domain with C-terminal His-tag (cynomolgus monkey, UniProt Q8SPW2 21-206 at identity 1.00))
T5 construct: also called cyno FcγRIIIaS; FcgRIIIaS
T5 chain: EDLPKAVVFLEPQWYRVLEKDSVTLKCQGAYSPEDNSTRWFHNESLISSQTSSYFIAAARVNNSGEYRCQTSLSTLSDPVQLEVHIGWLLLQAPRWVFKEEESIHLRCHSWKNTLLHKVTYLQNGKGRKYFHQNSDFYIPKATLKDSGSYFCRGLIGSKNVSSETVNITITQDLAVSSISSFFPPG


Columns and labels:
[1] = molecular target: T6, cynomolgus monkey FcγRIIIaS extracellular domain with C-terminal His-tag (cynomolgus monkey, UniProt A3RFZ7 21-206 (rhesus entry)); assay: SPR Biacore, antibody captured, FcgR analyte
T6 construct: also called cyno FcgRIIIaS; cynoFcγRIIIaS; not shown: His-tag added to C-terminus

[2] = molecular target: T1, human FcγRIIaH extracellular domain …; assay: SPR Biacore, antibody captured, FcgR analyte
[3] = molecular target: T2, human FcγRIIaR extracellular domain …; assay: SPR Biacore, antibody captured, FcgR analyte
[4] = molecular target: T3, human FcγRIIb extracellular domain with …; assay: SPR Biacore, antibody captured, FcgR analyte
[5] = molecular target: T4, cynomolgus monkey FcγRIIb extracellular …; assay: SPR; KD of SG1 / KD of variant
Method: (§1) The kinetic analysis of interactions between these antibodies and FcγR was carried out using BIACORE® T200 or BIACORE® 4000 (GE Healthcare). HBS-EP+ (GE Healthcare) was used as the running buffer, and the measurement temperature was set to 25° C. […] After the measurement, the antibody captured on the chip was washed off by allowing reaction with 10 mM glycine-HCl, pH1.5 and 25 mM NaOH so that the chip was regenerated and used repeatedly. The sensorgrams obtained as measurement results were analyzed by the 1:1 Langmuir binding model using the BIACORE® Evaluation Software to calculate the binding rate constant ka (L/mol/s) and dissociation rate constant kd (1/s), and the dissociation constant KD (mol/L) was calculated from these values. […] Regarding such interactions, KD values were calculated using the following 1:1 binding model described in BIACORE® T100 Software Handbook BR1006-48 Edition AE.

[6] = molecular target: T5, cynomolgus monkey FcγRIIIaS …; assay: SPR; KD of SG1 / KD of variant
Method: as §1

| KD fold (SG1 = 1) [1] | Kd [1] | Kd [2] | KD fold (SG1 = 1) [3] | Kd [3] | Kd [4] | KD fold (SG1 = 1) [5] | KD fold (SG1 = 1) [6] | Binder |
| --- | --- | --- | --- | --- | --- | --- | --- | --- |
| 0.12 fold | 2.9 µM | 1 µM | 0.1 fold | 2 µM | 1.1 µM |  |  | M103205H795-MY177/M103202L889-SK1 (antibody, human IgG1, kappa, name in EU numbering, EU numbering) heavy: QVTLKESGPVLVKPTETLTLTCTVSGIDLSHDDISWVRQAPGKGLEWVGIISYAGSTYYASWAKGRLTISKDTSKNQVVLTMTNMDPVDTATYYCARGVPAYSHGGDLWGQGTLVTVSSASTKGPSVFPLAPSSKSTSGGTAALGCLVKDYFPEPVTVSWNSGALTSGVHTFPAVLQSSGLYSLSSVVTVPSSSLGTQTYICNVNHKPSNTKVDKKVEPKSCDKTHTCPPCPAPELLNGPSVFLFPPKPKDTLMISRTPEVTCVVVDVSEEDPEVKFNWYVDGVEVHNAKTKPREEQYNSTYRVVSVLTVLHQDWLNGKEYKCKVSNKALPAPIEKTISKAKGQPREPQVYTLPPSREEMTKNQVSLTCLVKGFYPSDIAVEWESNGQPENNYKTTPNVLDSDGSFFLYSKLTVDKSRWQQGNVFSCSVMHEALHNHYTQKSLSLSP light: DIVMTQSPATLSLSPGERATLSCTSSQSVYHANWLSWFQQKPGQPPKLLIYWASTLAYGVPSRFSGSGSGTDFTLTISSLQPEDAATYYCAGGYGGGRYAFGQGTKVEIKRTVAAPSVFIFPPSDEQLKSGTASVVCLLNNFYPREAKVQWKVDNALQSGNSQESVTEQDSKDSTYSLSSTLTLSKADYEKHKVYACEVTHQGLSSPVTKSFNRGEC |
|  |  |  |  |  |  | 5.6 fold | 0.3 fold | M103205H795-MY276 (heavy chain) with M103202L889-SK1 (light chain) (antibody, human IgG1, kappa, name in EU numbering, Substitutions introduced into M103205H795-SG1; positions in EU numbering) heavy: QVTLKESGPVLVKPTETLTLTCTVSGIDLSHDDISWVRQAPGKGLEWVGIISYAGSTYYASWAKGRLTISKDTSKNQVVLTMTNMDPVDTATYYCARGVPAYSHGGDLWGQGTLVTVSSASTKGPSVFPLAPSSKSTSGGTAALGCLVKDYFPEPVTVSWNSGALTSGVHTFPAVLQSSGLYSLSSVVTVPSSSLGTQTYICNVNHKPSNTKVDKKVEPKSCDKTHTCPPCPAPELLIGPSVFLFPPKPKDTLMISRTPEVTCVVVDVSDEDPEVKFNWYVDGVEVHNAKTKPREEQYNSTYRVVSVLTVLHQDWLNGKEYKCKVSNKALPKPIEKTISKAKGQPREPQVYTLPPSREEMTKNQVSLTCLVKGFYPSDIAVEWESNGQPENNYKTTPKVLDSDGSFFLYSKLTVDKSRWQQGNVFSCSVMHEALHNHYTQKSLSLSP light: DIVMTQSPATLSLSPGERATLSCTSSQSVYHANWLSWFQQKPGQPPKLLIYWASTLAYGVPSRFSGSGSGTDFTLTISSLQPEDAATYYCAGGYGGGRYAFGQGTKVEIKRTVAAPSVFIFPPSDEQLKSGTASVVCLLNNFYPREAKVQWKVDNALQSGNSQESVTEQDSKDSTYSLSSTLTLSKADYEKHKVYACEVTHQGLSSPVTKSFNRGEC |
